Here are results for four molecules from patent publication US20200384061A1 (JCR PHARMACEUTICALS, published 2020).

Like-named read-outs stand apart in the source and are kept apart here.

In assay [1] the target is human TrkB (GenBank Acc. No. NP_001018074.1) expressed in CHO cells (CHO-TrkB cells) (human, UniProt Q16620 32-822). Nature of the assay: cell-based or functional assay.
Assay [2] has as its target T1, recombinant human TfR (r human TfR, Sino Biological Inc.), extracellular region of hTfR with N-terminal … (human, UniProt P02786 89-760).
T1 construct: also called r human TfR-ECD (Histag); recombinant hTfR; not shown: histidine tag added to the N-terminus
Nature of the assay: BLI (OctetRED96); fusion protein captured via biotin-labeled anti-human BDNF antibody on SA biosensor, TfR in solution. The method, then: (§1) Affinities of the hBDNF-anti-hTfR antibody (3N) 1 prepared in Example 22, to human TfR and to monkey TfR were measured. The measurement was generally performed by the following method. The biotin-labeled rabbit anti-human BDNF polyclonal antibodies (anti-human BDNF antibodies: PeproTech Corporation) was diluted with HBS-P+(1% BSA) (10 mM HEPES containing 150 mM NaCl, 50 μM EDTA, 0.05% Surfactant P20, and 1% BSA) to prepare the 15 μg/mL of solution, and the solution was designated as ligand solution 1. The purified product of an anti-hTfR antibody fusion BDNF (hBDNF-anti-hTfR antibody (3N) 1) was diluted with HBS-P+(1% BSA), and the solution was designated as ligand solution 2. And, as the reference control sample, the purified product of the hBDNF-anti-hTfR antibody (3) 1 obtained in Example 15-3 was also diluted with HBS-P+(1% BSA) to prepare ligand solution 3. r human TfR and r monkey TfR were respectively two fold serial diluted with HBS-P+(1% BSA) to prepare seven different concentrations of 0.78125 to 50 nM ([…] to 3.74 μg/mL). These TfR solution were used as TfR sample solutions.
(§2) The OctetRED96 was run under the condition shown in the following Table 15-3 to immobilize the anti-human BDNF antibody onto the sensor. Subsequently, after the OctetRED96 was run under the condition shown in the following Table 15-4 to obtain data, binding interaction curve was fitted to a 1:1 binding model or to a 2:1 binding model using the analysis software attached to the OctetRED96, the association rate constant (kon) and the dissociation rate constant (koff) of the anti-hTfR antibody fusion BDNF to r human TfR, and to r monkey TfR were measured, and the dissociation constant (KD) were calculated. The measurement was performed at 25° C. to 30° C.

Assay [3] addresses T2, recombinant monkey TfR (r monkey TfR, Sino Biological Inc.), extracellular region of cynomolgus monkey TfR … (cynomolgus monkey (Macaca fascicularis), UniProt Q5RDH6 89-760 (Pongo abelii entry)).
T2 construct: not shown: histidine tag added to the N-terminus
T2 chain: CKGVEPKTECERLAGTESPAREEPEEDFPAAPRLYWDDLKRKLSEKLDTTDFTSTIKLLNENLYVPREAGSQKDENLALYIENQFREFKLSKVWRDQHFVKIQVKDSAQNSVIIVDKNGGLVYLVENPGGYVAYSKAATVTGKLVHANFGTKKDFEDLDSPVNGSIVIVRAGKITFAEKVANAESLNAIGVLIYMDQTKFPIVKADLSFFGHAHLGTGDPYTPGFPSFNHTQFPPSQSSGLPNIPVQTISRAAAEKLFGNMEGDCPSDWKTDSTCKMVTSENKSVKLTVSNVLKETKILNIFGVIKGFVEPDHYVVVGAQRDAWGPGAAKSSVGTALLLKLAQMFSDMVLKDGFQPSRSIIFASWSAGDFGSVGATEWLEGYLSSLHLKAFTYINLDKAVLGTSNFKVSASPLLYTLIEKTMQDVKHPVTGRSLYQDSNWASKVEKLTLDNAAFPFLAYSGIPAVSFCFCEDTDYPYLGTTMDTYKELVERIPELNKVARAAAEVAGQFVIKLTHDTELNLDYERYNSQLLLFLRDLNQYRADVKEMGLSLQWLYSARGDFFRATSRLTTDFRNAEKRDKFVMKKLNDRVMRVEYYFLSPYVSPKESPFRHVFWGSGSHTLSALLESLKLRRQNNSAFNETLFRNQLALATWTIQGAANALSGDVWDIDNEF
The description is as above. The method, then: as §1, §2

Assay [4] deals with TrkB receptor on rat primary cultured neurons (corpus striatum of rat embryo) (rat, UniProt Q63604 32-821). In words: cell-based or functional assay.
For assay [5], the target named is T3, human serum albumin preparation (HSA) (blood donation albumin 25-Nichiyaku, Nihon Pharmaceutical Co., Ltd.) (human, UniProt P02768 25-609).
T3 construct: mature
In words: BLI (OctetRED96); fusion protein captured via biotin-labeled anti-human BDNF antibody on SA biosensor, HSA in solution. The method, then: (§3) Affinities of a hBDNF-anti-hTfR antibody (3N) ABD to human TfR, monkey TfR, and human serum albumin (HSA) were measured on OctetRED96 (ForteBio Corporation, a division of Pall Corporation) which is a system for biomolecular interaction analysis utilizing biolayer interferometry (BLI), as same as Example 25. The measurement was generally performed by operation manual attached to the OctetRED96.
(§4) The biotin-labeled rabbit anti-human BDNF polyclonal antibodies (anti-human BDNF antibody: PeproTech Corporation) was diluted with HBS-P+(1% BSA) (10 mM HEPES containing 150 mM NaCl, 50 μM EDTA, 0.05% Surfactant P20, and 1% BSA) to prepare 25 μg/mL of solution, and the solution was designated as ligand solution 1. A purified product of an hBDNF-anti-hTfR antibody (3N) ABD was diluted with HBS-P+, and the solution was designated as ligand solution 2. r human TfR and r monkey TfR were respectively two-fold serial diluted with HBS-P+ to prepare seven-different concentration of 0.78125 to 50 nM (0.0585 to 3.74 μg/mL). These TfR solution were designated as a TfR sample solution. The r human TfR and the r monkey TfR, those described in Example 7 were used. And, human serum albumin preparation (HSA) (blood donation albumin 25-Nichiyaku, Nihon Pharmaceutical Co., Ltd.) was two-fold serial diluted with HBS-P+ to prepare solution of seven-different concentration of 3.13 to 200 nM (0.208 to 13.3 μg/mL). The HSA solution were designated as an HSA sample solution.
The OctetRED96 was run under the condition shown in the following Table 15-3 described in Example 25 to immobilize the anti-human BDNF antibody onto the sensor. Subsequently, after the OctetRED96 was run under the condition shown in Table 16-2 to obtain data, binding interaction curve was fitted to a 1:1 binding model using the analysis software attached to the OctetRED96, the association rate constant (kon) and the dissociation rate constant (koff) of the hBDNF-anti-hTfR antibody (3N) ABD, to r human TfR, r monkey TfR, and HSA were measured, and a dissociation constant (KD) were calculated. […]

In assay [6] the target is T1, recombinant human TfR (r human TfR, …). Nature of the assay: BLI (OctetRED96); fusion protein captured via biotin-labeled anti-human BDNF antibody on SA biosensor, TfR in solution. The protocol: as §3, §4
(§5) The OctetRED96 was run under the condition shown in the following Table 15-3 described in Example 25 to immobilize the anti-human BDNF antibody onto the sensor. Subsequently, after the OctetRED96 was run under the condition shown in Table 16-2 to obtain data, binding interaction curve was fitted to a 1:1 binding model using the analysis software attached to the OctetRED96, the association rate constant (kon) and the dissociation rate constant (koff) of the hBDNF-anti-hTfR antibody (3N) ABD, to r human TfR, r monkey TfR, and HSA were measured, and a dissociation constant (KD) were calculated. The measurement was performed at 25° C. to 30° C.
The source holds these as a separate data set.

Assay [7] concerns the target T2, recombinant monkey TfR (r monkey TfR, …). Described as above. The method, then:
as §3, §4, §5

Assay [8] shares this target. Nature of the assay: BLI (OctetRED96).

T3 sequence (P02768 25-609): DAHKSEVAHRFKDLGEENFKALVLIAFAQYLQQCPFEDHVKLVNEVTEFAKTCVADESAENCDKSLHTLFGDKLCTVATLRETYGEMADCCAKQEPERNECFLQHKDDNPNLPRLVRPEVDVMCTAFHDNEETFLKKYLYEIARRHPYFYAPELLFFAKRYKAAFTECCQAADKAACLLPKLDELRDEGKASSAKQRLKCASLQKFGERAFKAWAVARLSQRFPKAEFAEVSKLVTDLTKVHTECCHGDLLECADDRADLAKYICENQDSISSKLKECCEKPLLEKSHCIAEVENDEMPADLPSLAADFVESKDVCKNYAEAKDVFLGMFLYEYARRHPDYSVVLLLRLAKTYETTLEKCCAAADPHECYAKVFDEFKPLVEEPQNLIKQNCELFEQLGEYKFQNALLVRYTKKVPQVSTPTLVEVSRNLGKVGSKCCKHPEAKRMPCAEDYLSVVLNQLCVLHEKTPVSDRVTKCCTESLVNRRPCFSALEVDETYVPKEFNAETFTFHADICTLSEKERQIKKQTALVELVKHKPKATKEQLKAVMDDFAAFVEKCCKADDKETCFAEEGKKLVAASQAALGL
Sequence of human TrkB (GenBank Acc. No. NP_001018074.1) expressed in CHO cells (CHO-TrkB cells) (Q16620 32-822): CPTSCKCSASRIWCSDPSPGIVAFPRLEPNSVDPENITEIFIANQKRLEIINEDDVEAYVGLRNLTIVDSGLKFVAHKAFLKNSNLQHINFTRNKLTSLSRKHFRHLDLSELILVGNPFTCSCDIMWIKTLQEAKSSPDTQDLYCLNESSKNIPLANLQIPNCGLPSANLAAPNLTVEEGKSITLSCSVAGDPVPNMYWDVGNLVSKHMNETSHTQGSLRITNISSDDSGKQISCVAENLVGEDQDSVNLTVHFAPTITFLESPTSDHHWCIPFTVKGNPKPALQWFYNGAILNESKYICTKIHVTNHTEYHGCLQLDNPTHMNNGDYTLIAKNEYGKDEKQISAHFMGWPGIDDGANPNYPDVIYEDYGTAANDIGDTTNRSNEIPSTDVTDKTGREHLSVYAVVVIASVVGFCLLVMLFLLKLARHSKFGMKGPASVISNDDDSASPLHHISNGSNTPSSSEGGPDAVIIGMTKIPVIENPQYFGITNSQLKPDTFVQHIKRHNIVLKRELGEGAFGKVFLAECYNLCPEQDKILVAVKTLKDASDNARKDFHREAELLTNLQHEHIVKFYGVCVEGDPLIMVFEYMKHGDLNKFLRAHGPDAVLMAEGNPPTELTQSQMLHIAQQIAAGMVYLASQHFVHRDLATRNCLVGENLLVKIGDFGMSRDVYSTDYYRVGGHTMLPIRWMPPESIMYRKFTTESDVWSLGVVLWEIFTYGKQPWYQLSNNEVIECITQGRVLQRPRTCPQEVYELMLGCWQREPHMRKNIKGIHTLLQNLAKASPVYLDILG
Sequence of TrkB receptor on rat primary cultured neurons (corpus striatum of rat embryo) (Q63604 32-821): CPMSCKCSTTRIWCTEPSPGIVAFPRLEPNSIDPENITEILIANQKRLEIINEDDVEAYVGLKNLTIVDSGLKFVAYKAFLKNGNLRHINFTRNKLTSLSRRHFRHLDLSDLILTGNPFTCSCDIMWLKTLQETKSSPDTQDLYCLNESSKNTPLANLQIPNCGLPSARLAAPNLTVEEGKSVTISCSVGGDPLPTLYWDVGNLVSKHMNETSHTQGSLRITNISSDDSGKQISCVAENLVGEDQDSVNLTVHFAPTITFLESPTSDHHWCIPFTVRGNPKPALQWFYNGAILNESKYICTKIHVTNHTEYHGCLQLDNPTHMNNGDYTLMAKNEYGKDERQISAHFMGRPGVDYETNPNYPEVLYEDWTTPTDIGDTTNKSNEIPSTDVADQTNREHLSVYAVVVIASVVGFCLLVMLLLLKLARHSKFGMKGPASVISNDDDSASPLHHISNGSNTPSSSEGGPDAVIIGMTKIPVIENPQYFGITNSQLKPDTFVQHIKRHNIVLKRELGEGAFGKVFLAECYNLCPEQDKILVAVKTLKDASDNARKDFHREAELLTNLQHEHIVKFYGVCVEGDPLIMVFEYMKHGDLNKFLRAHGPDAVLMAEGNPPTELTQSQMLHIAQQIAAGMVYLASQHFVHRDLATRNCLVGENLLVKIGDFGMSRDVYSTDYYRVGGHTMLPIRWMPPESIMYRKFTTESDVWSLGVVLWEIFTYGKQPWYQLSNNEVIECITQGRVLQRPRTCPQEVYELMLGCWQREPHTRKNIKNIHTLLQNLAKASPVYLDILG

B1: hBDNF-anti-hTfR antibody (3) 1 (other)
heavy: HSDPARRGELSVCDSISEWVTAADKKTAVDMSGGTVTVLEKVPVSKGQLKQYFYETKCNPMGYTKEGCRGIDKRHWNSQCRTTQSYVRALTMDSKKRIGWRFIRIDTSCVCTLTIKRGRGSGGGGSGGGGSGGGGSGGGGSGGGGSEVQLVQSGAEVKKPGESLKISCKGSGYSFTNYWLGWVRQMPGKGLEWMGDIYPGGDYPTYSEKFKVQVTISADKSISTAYLQWSSLKASDTAMYYCARSGNYDEVAYWGQGTLVTVSSASTKGPSVFPLAPSSKSTSGGTAALGCLVKDYFPEPVTVSWNSGALTSGVHTFPAVLQSSGLYSLSSVVTVPSSSLGTQTYICNVNHKPSNTKVDKKVEPKSCDKTHT
light: DIVMTQTPLSLSVTPGQPASISCRSSQSLVHSNGNTYLHWYLQKPGQSPQLLIYKVSNRFSGVPDRFSGSGSGTDFTLKISRVEAEDVGVYYCSQSTHVPWTFGQGTKVEIKRTVAAPSVFIFPPSDEQLKSGTASVVCLLNNFYPREAKVQWKVDNALQSGNSQESVTEQDSKDSTYSLSSTLTLSKADYEKHKVYACEVTHQGLSSPVTKSFNRGEC
In the case of B1, the “BDNF activity (TrkB agonistic: EC50, nmol/L)” value (shortened to “BDNF activity”) in assay [1] worked out at 0.16 nmol/L. Moreover, the values for the Kd in assay [2] and in assay [3] were 251 pM and 39400 pM, respectively.

B2: hBDNF-anti-hTfR antibody (3N) 1 (other)
heavy: HSDPARRGELSVCDSISEWVTAADKKTAVDMSGGTVTVLEKVPVSKGQLKQYFYETKCNPMGYTKEGCRGIDKRHWNSQCRTTQSYVRALTMDSKKRIGWRFIRIDTSCVCTLTIKRGRGGGGSGGGGSGGGGSGGGGSGGGGSEVQLVQSGAEVKKPGESLKISCKGSGYSFMNYWLGWVRQMPGKGLEWMGDIYPGGDYPTYSEKFKVQVTISADKSISTAYLQLSSLKASDTAMYYCARSGNYDEVAYWGQGTLVTVSSASTKGPSVFPLAPSSKSTSGGTAALGCLVKDYFPEPVTVSWNSGALTSGVHTFPAVLQSSGLYSLSSVVTVPSSSLGTQTYICNVNHKPSNTKVDKKVEPKSCDKTHT
light: DIVMTQTPLSLSVTPGQPASISCRSSQSLVHSNGNTYLHWYLQKPGQSPQLLIYKVSNRFSGVPDRFSGSGSGTDFTLKISRVEAEDVGVYYCSQSTHVPWTFGQGTKVEIKRTVAAPSVFIFPPSDEQLKSGTASVVCLLNNFYPREAKVQWKVDNALQSGNSQESVTEQDSKDSTYSLSSTLTLSKADYEKHKVYACEVTHQGLSSPVTKSFNRGEC
notes: copies set to 2 on that ground; also called anti-hTfR antibody fusion BDNF; hBDNF-humanized anti-hTfR antibody fusion protein
Regarding B2, the “BDNF activity” value in assay [1] came to 0.43 nmol/L. In addition, in assay [4], the “Erk phosphorylation activity (EC50, nmol/L)” value was found to be 0.02 nmol/L. Besides, in assay [2], the Kd was determined as 7.42 pM, the koff amounted to 3.54e-06 s⁻¹ and the kon is 477000 M⁻¹ s⁻¹. Besides, in assay [3], the Kd was 794 pM, the koff stood at 0.000196 s⁻¹ and the kon stood at 245000 M⁻¹ s⁻¹.

B3: hBDNF-anti-hTfR antibody (3N) ABD (other)
heavy: HSDPARRGELSVCDSISEWVTAADKKTAVDMSGGTVTVLEKVPVSKGQLKQYFYETKCNPMGYTKEGCRGIDKRHWNSQCRTTQSYVRALTMDSKKRIGWRFIRIDTSCVCTLTIKRGRGGGGSGGGGSGGGGSGGGGSGGGGSEVQLVQSGAEVKKPGESLKISCKGSGYSFMNYWLGWVRQMPGKGLEWMGDIYPGGDYPTYSEKFKVQVTISADKSISTAYLQLSSLKASDTAMYYCARSGNYDEVAYWGQGTLVTVSSASTKGPSVFPLAPSSKSTSGGTAALGCLVKDYFPEPVTVSWNSGALTSGVHTFPAVLQSSGLYSLSSVVTVPSSSLGTQTYICNVNHKPSNTKVDKKVGGGGSGGGGSGGGGSLAEAKVLALRELDKYGVSDYYKDLIDKAKTVEGVKALIDEILAALP
light: DIVMTQTPLSLSVTPGQPASISCRSSQSLVHSNGNTYLHWYLQKPGQSPQLLIYKVSNRFSGVPDRFSGSGSGTDFTLKISRVEAEDVGVYYCSQSTHVPWTFGQGTKVEIKRTVAAPSVFIFPPSDEQLKSGTASVVCLLNNFYPREAKVQWKVDNALQSGNSQESVTEQDSKDSTYSLSSTLTLSKADYEKHKVYACEVTHQGLSSPVTKSFNRGEC
notes: BDNF-Fab-ABD fusion
B3: in assay [1], the “BDNF activity” value came to 0.3 nmol/L. Further, the “Erk phosphorylation activity (EC50, nmol/L)” value in assay [4] worked out at 0.02 nmol/L. In assay [5], this molecule yielded a Kd of 13500 pM, an off-rate (koff) of 0.000829 s⁻¹ and an on-rate (kon) of 61300 M⁻¹ s⁻¹. Also, in assay [6], the Kd amounted to 56.6 pM, the off-rate (koff) stood at 4e-05 s⁻¹ and the kon was determined as 707000 M⁻¹ s⁻¹. Also, in assay [7], the Kd stood at 626 pM, the off-rate constant (koff) amounted to 0.000145 s⁻¹ and the kon amounted to 231000 M⁻¹ s⁻¹.

B4: humanized anti-hTfR antibody No. 3N (antibody, human IgG1, kappa, V domains shown)
VH: EVQLVQSGAEVKKPGESLKISCKGSGYSFMNYWLGWVRQMPGKGLEWMGDIYPGGDYPTYSEKFKVQVTISADKSISTAYLQLSSLKASDTAMYYCARSGNYDEVAYWGQGTLVTVSS
VL: DIVMTQTPLSLSVTPGQPASISCRSSQSLVHSNGNTYLHWYLQKPGQSPQLLIYKVSNRFSGVPDRFSGSGSGTDFTLKISRVEAEDVGVYYCSQSTHVPWTFGQGTKVEIKR
notes: IgG1; Same light chain as humanized No. 3; also called Humanized anti-hTfR antibody 3N
With B4, in assay [8], the “KD relative to that of the humanized anti-hTfR antibody No. 3” value was roughly 0.033 fold and the “affinity relative to that of the humanized anti-hTfR antibody No. 3” value is roughly 30 fold.

The term Kd denotes the equilibrium constant for the complex coming apart. What is called koff is the rate constant with which the complex falls apart. Usually kon stands for the rate constant with which the complex forms.
